Experiment [1] has as its target recombinant human mesothelin extracellular domain, isoform 1 (hMSLN-ECD, 10xHis) (human) (UniProt Q13421). As to the kind of experiment: SPR (Biacore T200), VHH over immobilized hMSLN-ECD, 1:1 model.
The target of experiment [2] is T1, recombinant mouse mesothelin extracellular domain (mMSLN-ECD) (mouse, UniProt Q61468 298-600, limits assumed).
T1 construct: extracellular domain; also called mouse MSLN; mouse MSLN-ECD
T1 sequence (looked up): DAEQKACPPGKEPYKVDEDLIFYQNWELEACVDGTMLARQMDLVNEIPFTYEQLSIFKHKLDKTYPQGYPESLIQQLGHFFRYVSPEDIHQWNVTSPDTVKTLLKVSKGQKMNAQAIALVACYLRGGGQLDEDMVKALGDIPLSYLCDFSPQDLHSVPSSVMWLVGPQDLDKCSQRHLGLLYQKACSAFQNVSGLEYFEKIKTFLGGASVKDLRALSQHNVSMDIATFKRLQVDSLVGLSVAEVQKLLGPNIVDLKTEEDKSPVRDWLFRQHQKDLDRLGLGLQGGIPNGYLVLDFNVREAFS
As to the kind of experiment: SPR, VHH over immobilized mouse MSLN-ECD. The protocol:
For surface Plasmon resonance, as mentioned above selected VHHs were passed though size exclusion columns, Superdex 75 (GE Healthcare), respectively, in 10 mM HEPES, pH 7.4, containing 150 mM NaCl, 3 mM EDTA, and monomeric sdAb fractions were collected and protein concentrations were determined by measuring absorbance at 280 nm (A280). SPR analysis were performed with Biacore T200 instrument (GE Healthcare). All measurements were carried out at 25° C. in 10 mM HEPES, pH 7.4, containing 150 mM NaCl, 3 mM EDTA and 0.005% surfactant P20 (GE Healthcare). Approximately 500 RUs of the recombinant monomeric human and mouse MSLN-ECD (obtained after SEC purification of the MSLN-ECD) were captured on SA sensor chip (GE Healthcare) at a flow rate of 5 uL/min. Various concentration of the monomeric VHHs (20-500 nM) were injected over MSLN-ECD surface, respectively using an SA surface as a reference at a flow rate of 40 μL/min. Surfaces were generated by washing with running buffer. Data were analysed with BIAevaluation 4.1 software.
The monomeric fraction of VHHs obtained by SEC purification were used for SPR experiment where the human or mouse MSLN-ECD was immobilized onto the […] and various VHH concentration (20-500 nM) were passed over the sensor chip. […] All of the data collected fit a 1:1 binding model (Table 3A).
Background: In SPR one partner is held on a chip, and binding of the other changes the refractive index at the surface.

In experiment [3] the target is recombinant human mesothelin extracellular domain, isoform 1 (hMSLN-ECD, 10xHis) (human) (UniProt Q13421). The experiment is described as follows: SPR (Biacore T200), VHH over immobilized hMSLN-ECD; no rate constants printed.
The target of experiment [4] is human mesothelin on MSLN-positive cells (NCI-H292, SKOV3) (human) (UniProt Q13421). The experiment is described as follows: cell-based or functional assay.
Sequence of human mesothelin on MSLN-positive cells (NCI-H292, SKOV3) (human) (Q13421 other isoform, or with tags, fused parts or gaps limits assumed): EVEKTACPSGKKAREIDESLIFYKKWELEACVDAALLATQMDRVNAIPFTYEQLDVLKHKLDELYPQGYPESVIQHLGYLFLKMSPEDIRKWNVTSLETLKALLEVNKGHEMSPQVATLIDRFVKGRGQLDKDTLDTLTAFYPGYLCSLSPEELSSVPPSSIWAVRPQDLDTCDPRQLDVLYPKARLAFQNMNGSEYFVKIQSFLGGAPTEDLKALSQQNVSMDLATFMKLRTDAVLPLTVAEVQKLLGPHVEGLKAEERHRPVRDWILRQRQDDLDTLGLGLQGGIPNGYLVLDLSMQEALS
Experiment [5] has as its target T2, human mesothelin on MSLN-positive cells (NCI-H292, SKOV3) (human, UniProt Q13421 296-598).
T2 construct: whole, on cells; Endogenous expression on tumour cell lines; H1581 and Raji cells served as MSLN-negative controls; also called cell surface MSLN
As to the kind of experiment: Mirrorball microplate cytometry on adherent NCI-H292 (MSLN-positive) cells, 2 h; biotinylated VHH detected with streptavidin-PE; MMFI. As for the experimental part: Cells (5000 cells well-1) were seeded in Nunc® MicroWell 96-well optical bottom plates (Sigma-Aldrich) and incubated at 37° C. in a humidified atmosphere containing 5% CO₂ for 24-48 h. Each anti-MSLN biotinylated VHH was serially diluted in Live Cell Imaging Solution (LCIS; Thermo Fisher) and 50 μL of each Ab variant was added to the assay plate and incubated at 4° C. for 2 h. As positive control, anti-MF-T (human IgG1) monoclonal antibody (NRC-HHT-Montreal) was used. The wells were washed with LCIS, then Biotin-Streptavidin, R-Phycoerythrin Conjugate (SAPE) or donkey anti-Human Alexa Fluor (AF488) (at 3 ug/ml final concentration) was added to the wells and incubated at 4° C. for 1 h. The secondary Ab was removed, the cells were washed with LCIS then 50 μL of DRAQ5 nuclear stain (1 μM prepared in LCIS; Cell Signaling, Danvers, MA, USA) was added to wells and incubated for 10 min at 4° C. […] Data were analyzed using Cellista software (TTP Labtech) and GraphPad Prism 6 software. […]
Cell binding activities of the selected VHHs were examined by Mirrorball where negative-(NCI-H1581) and positive (NCI-H292)-MSLN cells were cultured in 96 well plate and binding of the biotinylated VHHs was detected by Streptaviding-PE conjugate. As positive control, a human IgG1 mAb MF-T was used which was detected by donkey anti-human […].

T2 sequence (Q13421 other isoform, or with tags, fused parts or gaps limits assumed): as above

B1: hMSLN-TP7-75A (VHH)
VHH: QVQLVESGGGLVQAGGSLSLSCAASGRTFSASAMAWFRQAPGTDREFVAAVAWGGRDTHYADSVKGRFTISMNNAKNTVVLQMNSLKPEDTAVYYCAAGQRGWSHSTSRDYDYWGQGTQVTVSS
notes: Llama VHH expressed in E. coli; also called VHH # 12
As for B1, in experiment [1], the dissociation constant (Kd) (as a rule, a measure of binding affinity in units of concentration) is 52 nM; the koff (as a rule, the rate constant with which the complex falls apart) was 0.0305 s⁻¹; the kon (as a rule, the second-order rate constant of association) is 587000 M⁻¹ s⁻¹. Also, the binding result in experiment [2] is “no binding (tested: 20-500 nM)”.

B2: hMSLN-bioTP7-53 (VHH)
VHH: QVQLVESGGGLVQPGGSLRLACAASGGIGSLSNVRWYRQGPGKEREYVAGITGQSTTYYADSVKGRFTISRDNVKNTVDLQMNSLKPEDTAVYICNVATLRNEYWGQGTQVTVSS
notes: Llama VHH expressed in E. coli; also called VHH # 11
Turning to B2, in experiment [1], the Kd came out at 0.571 nM, the koff is 0.000433 s⁻¹ and the kon amounted to 758000 M⁻¹ s⁻¹. Further, the binding result in experiment [2] is listed as “no binding (tested: 20-500 nM)”.

B3: hMSLN-bioTP7-48 (VHH)
VHH: QVKLEESGGGLVQPGGSLRLSCTASGSIWSASGLTWYRQRPGNERELVASITTGGETTWYADSVKGRFTISISRDNGKMITYLQMNSLKPEDTAVYLCNSRSYWGQGTQVTVSS
notes: Llama VHH expressed in E. coli; also called VHH # 10
As for B3, the Kd in experiment [3] was found to be 276 nM. The binding result in experiment [2] is reported as “no binding (tested: 20-500 nM)”.

B4: hMSLN-biomTP7-41 (VHH)
VHH: QVQLVESGGGLVQPGGSLRLSCTASGIVRASGMAWYRQAPGKQRELVASITTGGETTWYADSVKGRFTISIDNAKMMLYLQMNALKPEDTAVYLCNQRSYWGQGTQVTVSS
modifications: C-terminal His tag and AviTag from vector pMRO; letters not given, left off
notes: Llama VHH expressed in E. coli; also called VHH # 9
With B4, the Kd in experiment [3] amounted to 214 nM. In addition, the binding result in experiment [2] is “no binding (tested: 20-500 nM)”.

B5: hMSLN-TP7-56 (VHH)
VHH: QVQLVESGGGLVQAGGSLRISCVASGRDFSSHFMGWSRQAPGKEREFVAAISWSGGTTYYADSVKGRFAISRDNDKTTVYLQMNSLKPEDSAVYYCAARRTYDSRTSLRNSYDYPYWGQGTQVTVSS
modifications: C-terminal His tag and AviTag (biotinylated in the Mirrorball assay) from vector pMRO; letters not given, left off
notes: Llama VHH expressed in E. coli; biotinylated form used in the Mirrorball assay; also called VHH # 7
As for B5, in experiment [1], the Kd came out at 26.5 nM, the koff turned out to be 0.0201 s⁻¹ and the on-rate constant (kon) is 757000 M⁻¹ s⁻¹. Besides, the binding result in experiment [2] is on record as “no binding (tested: 20-500 nM)”.

B6: hMSLN-TP7-5 (VHH)
VHH: QVKLEESGGGLVQAGGSLRISCAASGRSISDYFMGWFRQTPGKEREFVAAISWSGGTAYYADSVKGRFTISRDNAKNTGYLQMNSLKPEDTAVYFCAARLSYDSRTSLQNSYDYNYWGQGTQVTVSS
notes: Llama VHH expressed in E. coli; biotinylated form used in the Mirrorball assay; also called VHH # 2
With B6, in experiment [1], the Kd turned out to be 57.2 nM. In experiment [4], this molecule displayed an EC50 of CD69 staining of Jurkat cells in co-culture with MSLN+ H292 cells of 1 nM. Also, the binding result in experiment [2] is reported as “no binding (tested: 20-500 nM)”.

B7: hMSLN-mTP7-82 (VHH)
VHH: QVQLVESGGGLVQAGGSLRLSCAASGSIRSASGMHWYRQAPGKERELVASITTSGETTWYRDSVKGRFTISINNAKMMLYLQMNSLKFEDTAVYYCNLRSYWGQGTQVTVSS
notes: Llama VHH expressed in E. coli
Turning to B7, in experiment [1], the Kd was 0.0579 nM, the koff turned out to be 0.000176 s⁻¹ and the kon was determined as 3.04e+06 M⁻¹ s⁻¹. The Kd in experiment [2] stood at 145 nM.

B8: hMSLN-TP7-35 (VHH)
VHH: QVQLVDSGGGLVQPGGSLRLSCTTSASTFRFFAMHWYRQAPGKERELVAVISRDGDAEYVDSVKGRFTISRDNAKNAVYLQMNSLKPEDTAVYYCHTRILSDHYWGQGTQVTVSS
modifications: C-terminal His tag and AviTag from vector pMRO; letters not given, left off
notes: Llama VHH expressed in E. coli; also called VHH # 5
On to B8, for which the binding result in experiment [2] is given as “no binding (tested: 20-500 nM)”.

B9: hMSLN-bioTP7-7 (VHH)
VHH: QVQLVESGGGLVQAGGSLRLSCAASGRTVSTYNMAWFRQAPGKEREIVAVINWTGGSTYYAESVKGRFTISRDNPKNTVYLQMNSLKPEDTAVYYCAATRTSWTENTYWGQGTQVTVSS
modifications: C-terminal His tag and AviTag from vector pMRO; letters not given, left off
notes: as for B7
In the case of B9, in experiment [1], the Kd was determined as 0.0924 nM, the koff amounted to 0.000351 s⁻¹ and the kon was determined as 3.8e+06 M⁻¹ s⁻¹. In experiment [2], the Kd was found to be 218 nM.

B10: hMSLN-TP7-9 (VHH)
VHH: DVQLVDSGGGLVQAGGSLRLSCAASGRTVSTYNMAWFRQAPGKEREIVAVINWTGGSTYYAESVKGRFTISGDNPKNTVYLQMNSLKPEDTAVYYCAATRASWTENTYWGQGTQVTVSS
notes: Llama VHH expressed in E. coli; biotinylated form used in the Mirrorball assay; also called VHH # 3
Take B10: in experiment [1], the Kd was 1.34 nM, the koff came to 0.00238 s⁻¹ and the on-rate constant (kon) was determined as 1.78e+06 M⁻¹ s⁻¹. Also, in experiment [5], the concentration giving a half-maximal response (EC50 (read off the curve)) (commonly the concentration needed to bring the measured effect to its halfway point) was approximately 3 nM. For the same molecule, the binding result in experiment [2] is listed as “no binding (tested: 20-500 nM)”.

B11: hMSLN-TP7-38A (VHH)
VHH: QVKLEESGGGLVQPGGSLRLSCAASGRTVSAYNMAWFRQAPGKEREIVAVINWTGGGTYYAESVKGRFTISRDNPKNTVYLQMNSLKPEDTAVYYCAATRTSWTENTYWGQGTQVTVSS
notes: Llama VHH expressed in E. coli; also called VHH # 6
On to B11, for which the binding result in experiment [2] is given as “no binding (tested: 20-500 nM)”.

B12: hMSLN-TP7-18 (VHH)
VHH: EVQLVESGGRLVQAGGSLRLSCVASGRAFKWWTMGWFRQAPGKEREFVASISWSDGSTTYGDSVKGRFAISRDNNKNTVYLQMNSLTPEDTAVYYCARYGKDLSGRHSKNVQDYDYWGQGTQVTVSS
notes: Llama VHH expressed in E. coli; also called VHH # 4
Regarding B12, the koff in experiment [1] turned out to be 0.0138 s⁻¹. Further, the binding result in experiment [2] was “no binding (tested: 20-500 nM)”.

B13: hMSLN-TP7-4 (VHH)
VHH: QVQLVGSGGGLVRAGGSLRLSCAGSGLTFGSYAMAWYRQAPGKQRELVASISSRGVTNYADSVEGRFTISRDNAKSTVYLQMNDLKPEDAAVYYCNAKGPFMLREYDYWGQGTQVTVSS
notes: Llama VHH expressed in E. coli BL21(DE3), IMAC purified, monomeric SEC fraction used for SPR; biotinylated form used in the Mirrorball assay; also called VHH # 1
For the molecule B13, in experiment [1], the Kd was 0.225 nM, the off-rate (koff) is 0.000388 s⁻¹ and the kon is 1.72e+06 M⁻¹ s⁻¹. In addition, in experiment [5], the “EC50 (read off the curve)” value was approximately 1 nM. The Kd in experiment [2] was 300 nM.
